What all share (assay): GST fusion protein pulldown assay, quantified immunoblot (α-tubulin)
In one assay the target is Purified bovine tubulin (UniProt Q6B856). The settings on record: parent: est. 100, read off a plot.
Assay [1] has as its target T1, Purified bovine tubulin, Q6B856.
T1 chain: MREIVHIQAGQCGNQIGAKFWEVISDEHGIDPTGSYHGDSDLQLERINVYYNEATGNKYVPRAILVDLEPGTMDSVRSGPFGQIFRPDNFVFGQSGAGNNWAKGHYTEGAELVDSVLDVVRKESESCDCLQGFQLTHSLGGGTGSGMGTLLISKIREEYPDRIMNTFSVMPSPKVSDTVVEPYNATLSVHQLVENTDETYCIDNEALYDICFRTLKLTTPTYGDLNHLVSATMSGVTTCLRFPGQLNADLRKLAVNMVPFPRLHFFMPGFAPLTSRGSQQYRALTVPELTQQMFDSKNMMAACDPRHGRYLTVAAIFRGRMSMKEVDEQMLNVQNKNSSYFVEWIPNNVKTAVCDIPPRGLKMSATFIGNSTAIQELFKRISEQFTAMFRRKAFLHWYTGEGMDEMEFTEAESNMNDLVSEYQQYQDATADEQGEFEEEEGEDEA
The settings on record: chain shown with the change.

The target in assay [2] is Tubulin from rat brain extracts, P68370;Q3KRE8. The note with it: chain shown with the change; rat brain cytosolic extracts; parent: est. 100; read off a plot.
The mark [3] stands for this setting: parent: est. 100, read off a plot.

In paper PMC3581488 one finds percent of parent data, which are given here for five molecules.

As to “GST fusion protein encoding the C-terminus (CT) of the angiotensin II type 1 receptor (AT1R) K311E”, the percent of parent with Purified bovine tubulin is 52 % of AT1R CT.
For the molecule “GST fusion protein encoding the C-terminus (CT) of the angiotensin II type 1 receptor (AT1R) K310E”, in the assay with Purified bovine tubulin, the percent of parent is 20 % of AT1R CT.

B1: GST fusion protein encoding the C-terminus (CT) of the angiotensin II type 1 receptor (AT1R) K307E (protein)
chain: LGEKFKKYFLQLLKYIPPKAKSHSSLSTKMSTLSYRPSDNMSSSAKKPASCFEVE
Consider B1, for which the percent of parent in assay [1] (setting [3]) is 83 % of AT1R CT.

B2: GST fusion protein encoding the C-terminus (CT) of the angiotensin II type 1 receptor (AT1R) K308E (protein)
chain: LGKEFKKYFLQLLKYIPPKAKSHSSLSTKMSTLSYRPSDNMSSSAKKPASCFEVE
In the case of B2, the percent of parent in assay [1] (setting [3]) was 100 % of AT1R CT.

B3: GST fusion protein encoding the C-terminus (CT) of the angiotensin II type 1 receptor (AT1R) K307E; K308E; K310E; K311E (protein)
chain: LGEEFEEYFLQLLKYIPPKAKSHSSLSTKMSTLSYRPSDNMSSSAKKPASCFEVE
Consider B3, for which the percent of parent in assay [2] was 12 % of AT1R CT; in assay [1] (setting [3]), 5 % of AT1R CT; in assay [1] (purified tubulin, parent: est. 100, read off a plot) it was 4 % of AT1R CT.
